Laboratory results as given in article PMC5278647 (Biochemistry, 2016).

Target: T1, his-tagged F110A variant of human ferrochelatase (FECH), recombinant from E. coli (human, UniProt P22830 55-423, F110A)
T1 sequence (looked up): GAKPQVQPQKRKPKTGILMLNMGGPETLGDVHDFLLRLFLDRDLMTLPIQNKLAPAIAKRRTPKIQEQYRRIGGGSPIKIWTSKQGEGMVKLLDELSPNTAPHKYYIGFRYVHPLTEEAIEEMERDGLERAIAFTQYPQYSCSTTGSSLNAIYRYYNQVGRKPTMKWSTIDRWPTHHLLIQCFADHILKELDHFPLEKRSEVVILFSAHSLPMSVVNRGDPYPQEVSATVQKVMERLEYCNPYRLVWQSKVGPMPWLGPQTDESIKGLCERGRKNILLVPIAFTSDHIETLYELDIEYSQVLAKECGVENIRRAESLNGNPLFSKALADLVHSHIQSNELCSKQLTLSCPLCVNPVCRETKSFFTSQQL
Test: pull-down

B1: non-tagged full length human PGRMC1, recombinant from E. coli (natural protein)
chain: not shown
fold of PGRMC1 recovered (against wild-type FECH): > 2 fold
